According to US20190225676A1 (Hoffmann-La Roche, published 2019):

What was measured:
[1] = molecular target: collagen (ECM compound added to PBS in the FCS diffusion test solution); assay: cell-based or functional assay
[2] = molecular target: T1, human Collagen type II (Millipore CC052) (human, UniProt P02458 182-1241, limits assumed); assay: SPR (BIAcore T200), collagen II amine-coupled on chip, construct injected 1.23-900 nM, 25 C, 1:1 Langmuir fit
T1 construct: Bought material, immobilised by amine coupling on the sensor chip; also called human collagen II
T1 sequence (P02458 182-1241 limits assumed): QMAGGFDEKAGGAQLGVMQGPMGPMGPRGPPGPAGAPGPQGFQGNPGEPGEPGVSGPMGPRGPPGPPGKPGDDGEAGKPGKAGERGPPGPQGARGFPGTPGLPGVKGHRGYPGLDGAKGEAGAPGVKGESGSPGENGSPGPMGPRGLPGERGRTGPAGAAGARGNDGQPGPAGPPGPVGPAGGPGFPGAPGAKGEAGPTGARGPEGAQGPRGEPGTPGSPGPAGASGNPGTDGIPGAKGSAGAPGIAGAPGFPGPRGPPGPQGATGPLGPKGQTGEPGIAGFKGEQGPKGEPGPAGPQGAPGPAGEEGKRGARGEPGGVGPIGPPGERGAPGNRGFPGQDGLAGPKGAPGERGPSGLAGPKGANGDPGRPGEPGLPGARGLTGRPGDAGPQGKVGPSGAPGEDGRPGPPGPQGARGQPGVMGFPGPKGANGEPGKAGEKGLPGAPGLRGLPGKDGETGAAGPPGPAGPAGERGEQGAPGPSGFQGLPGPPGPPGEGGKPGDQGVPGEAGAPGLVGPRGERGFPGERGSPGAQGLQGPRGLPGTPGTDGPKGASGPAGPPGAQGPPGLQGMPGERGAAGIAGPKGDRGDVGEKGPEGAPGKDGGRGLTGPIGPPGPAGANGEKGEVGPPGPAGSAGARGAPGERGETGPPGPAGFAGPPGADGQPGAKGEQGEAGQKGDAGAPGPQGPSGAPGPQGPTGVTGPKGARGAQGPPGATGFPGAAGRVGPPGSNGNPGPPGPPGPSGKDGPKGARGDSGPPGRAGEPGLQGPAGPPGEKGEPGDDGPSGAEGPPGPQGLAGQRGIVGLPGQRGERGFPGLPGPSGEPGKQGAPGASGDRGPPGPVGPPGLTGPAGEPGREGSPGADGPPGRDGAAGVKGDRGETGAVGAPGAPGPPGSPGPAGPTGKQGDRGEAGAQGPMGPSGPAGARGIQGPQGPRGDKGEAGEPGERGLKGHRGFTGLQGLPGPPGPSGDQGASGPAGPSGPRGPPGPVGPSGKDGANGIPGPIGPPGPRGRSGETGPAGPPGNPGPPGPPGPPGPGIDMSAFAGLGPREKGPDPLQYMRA
Protocol: (§1) Binding kinetics of anti-collagen antibodies to human Collage type II (Millipore CC052) and porcine Collagen type II (USBiological C7510-31) was investigated by surface plasmon resonance using a BIAcore T200 instrument (GE Healthcare). All experiments were performed at 25° C. using HBS-P (10 mM […], 140 mM NaCl, 0.05% Tween 20 pH 7.4) as running and dilution buffer. Collagen type II was immobilized on a Series S CMS Sensor Chip (GE Healthcare) using standard amine coupling chemistry. Anti-Collagen antibodies were injected for 180 s with concentrations from 1.23 up to 900 nM (1:3 dilution series) onto the surface (association phase). The dissociation phase was monitored for 600 sec by washing with running buffer. The surface was regenerated by injecting 0.85% H₃PO₄ for 60 sec. Bulk refractive index differences were corrected by subtracting the response obtained from a mock surface. Blank injections were subtracted (double referencing). The derived curves were fitted to a 1:1 Langmuir binding model using the BIAevaluation software.

[3] = molecular target: T2, porcine Collagen type II (USBiological C7510-31) (porcine); assay: as above
T2 construct: Bought material, immobilised by amine coupling on the sensor chip; also called porcine collagen II
Protocol: as §1

Binder	diffusion rate FCS (increase in PBS comprising ECM compound at equimolar concentration compared to PBS alone) [1] [%]	Kd [2] [nM]	Kd [3] [nM]
FAB-COLL-II: anti-digoxigenin antibody Fab conjugated to anti-collagen II antibody scFv II (bispecific antibody, Fab-scFv fusion; also called FAB-COLL-II (8 nM)) heavy: QVQLVESGGGLVKPGGSLRLSCAASGFTFSDYAMSWIRQAPGKGLEWVSSINIGATYIYYADSVKGRFTISRDNAKNSLYLQMNSLRAEDTAVYYCARPGSPYEYDKAYYSMAYWGQGTTVTVSSASTKGPSVFPLAPSSKSTSGGTAALGCLVKDYFPEPVTVSWNSGALTSGVHTFPAVLQSSGLYSLSSVVTVPSSSLGTQTYICNVNHKPSNTKVDKKVEPKSCGGGGSGGGGSEIVLTQSPATLSLSPGERATLSCRASQSVDDWLAWYQQKPGQAPRLLIYDASNRATGIPARFSGSGSGTDFTLTISSLEPEDFAVYYCQQGDTAPITFGQGTKVEIKGGGGSGGGGSGGGGSGGGGSQVQLVQSGAEVKKPGSSVKVSCKASGGTFSSYAISWVRQAPGQGLEWMGGIIPIFGTANYAQKFQGRVTITADESTSTAYMELSSLRSEDTAVYYCARNIVGDYLLDYWGQGTLVTVSS light: not shown	260	15	50
FAB-COLL-III: anti-digoxigenin antibody Fab conjugated to anti-collagen II antibody scFv III (bispecific antibody, Fab-scFv fusion; also called FAB-COLL-III (8 nM)) heavy: QVQLVESGGGLVKPGGSLRLSCAASGFTFSDYAMSWIRQAPGKGLEWVSSINIGATYIYYADSVKGRFTISRDNAKNSLYLQMNSLRAEDTAVYYCARPGSPYEYDKAYYSMAYWGQGTTVTVSSASTKGPSVFPLAPSSKSTSGGTAALGCLVKDYFPEPVTVSWNSGALTSGVHTFPAVLQSSGLYSLSSVVTVPSSSLGTQTYICNVNHKPSNTKVDKKVEPKSCGGGGSGGGGSEIVLTQSPATLSLSPGERATLSCRASQSVADWLAWYQQKPGQAPRLLIYDASNRATGIPARFSGSGSGTDFTLTISSLEPEDFAVYYCQQYDGWPITFGQGTKVEIKGGGGSGGGGSGGGGSGGGGSQVQLVQSGAEVKKPGSSVKVSCKASGGTFSSYAISWVRQAPGQGLEWMGGIIPIFGTANYAQKFQGRVTITADESTSTAYMELSSLRSEDTAVYYCARHLYYMLDYWGQGTLVTVSS light: not shown	40	180	342
FAB-COLL-I: anti-digoxigenin antibody Fab conjugated to anti-collagen II antibody scFv I (bispecific antibody, Fab-scFv fusion; also called FAB-COLL-I (2 nM)) heavy: QVQLVESGGGLVKPGGSLRLSCAASGFTFSDYAMSWIRQAPGKGLEWVSSINIGATYIYYADSVKGRFTISRDNAKNSLYLQMNSLRAEDTAVYYCARPGSPYEYDKAYYSMAYWGQGTTVTVSSASTKGPSVFPLAPSSKSTSGGTAALGCLVKDYFPEPVTVSWNSGALTSGVHTFPAVLQSSGLYSLSSVVTVPSSSLGTQTYICNVNHKPSNTKVDKKVEPKSCGGGGSGGGGSEIVLTQSPATLSLSPGERATLSCRASQSVRDFLAWYQQKPGQAPRLLIYGASNRATGIPARFSGSGSGTDFTLTISSLEPEDFAVYYCQQRGSAPLTFGQGTKVEIKGGGGSGGGGSGGGGSGGGGSQVQLVQSGAEVKKPGSSVKVSCKASGGTFSSYAISWVRQAPGQGLEWMGGIIPIFGTANYAQKFQGRVTITADESTSTAYMELSSLRSEDTAVYYCARDPNGNIVLSEYFDYWGQGTLVTVSS light: not shown	180	30	56
